Measured values published in paper PMC4880913, “Solution structure and binding specificity of the p63 DNA binding domain”.
Numbering of substitutions follows the chain as printed.

Key:
p63-DBD = target: T1, p63-DBD (UniProt Q9H3D4 153-388); assay: NMR titration (1H-15N TROSY); 100 mM NaCl; FP: 100 nM 5'-fluorescein dsDNA, 10 mM sodium phosphate pH 7.2, 1 mM DTT, temperature not stated; NMR: 1 mM sodium phosphate pH 7.2, 100 mM NaCl, 5 mM DTT, 303; conditions: protein: recombinant; tags: His-tag removed with thrombin (pET28a construct); blunt
T1 sequence: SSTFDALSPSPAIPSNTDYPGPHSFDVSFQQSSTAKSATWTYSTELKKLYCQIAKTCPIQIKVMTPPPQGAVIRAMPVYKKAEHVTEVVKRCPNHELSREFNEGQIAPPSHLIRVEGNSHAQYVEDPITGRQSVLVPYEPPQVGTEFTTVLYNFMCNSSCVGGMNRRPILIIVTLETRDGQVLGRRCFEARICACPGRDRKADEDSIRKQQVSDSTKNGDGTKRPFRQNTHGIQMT

p63-DBD L210E = target: T2, p63-DBD L210E (UniProt Q9H3D4 153-388, L249E); assay: fluorescence polarization; FP: 100 nM 5'-fluorescein dsDNA, 10 mM sodium phosphate pH 7.2, 1 mM DTT, temperature not stated; NMR: 1 mM sodium phosphate pH 7.2, 100 mM NaCl, 5 mM DTT, 303; conditions: protein: recombinant; label: 5'-fluorescein; blunt
T2 sequence: T1 sequence with L97E

p53-DBD = p53-DBD (UniProt P04637 94-312); assay: as above; conditions: protein: recombinant; chain copies: 2; label: 5'-fluorescein; blunt
Sequence of p53-DBD (P04637 94-312): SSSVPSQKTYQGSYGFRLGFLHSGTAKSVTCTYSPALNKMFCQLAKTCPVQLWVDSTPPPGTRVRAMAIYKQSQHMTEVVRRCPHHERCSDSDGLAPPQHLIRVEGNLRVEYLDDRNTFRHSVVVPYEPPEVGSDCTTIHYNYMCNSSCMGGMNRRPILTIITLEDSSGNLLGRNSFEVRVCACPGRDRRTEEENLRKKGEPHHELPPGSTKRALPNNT

B1: con2 x 5 (NMR) (dsDNA)
DNA 1: TTAGGACATGTCCATC
DNA 2: GATGGACATGTCCTAA
binding result (p63-DBD): binds

B2: con2 x 5 (FP) (dsDNA)
DNA 1: TTAGGACATGTCCATC
DNA 2: GATGGACATGTCCTAA
binding result (p63-DBD L210E): binds
binding result (p53-DBD): binds
